Molecular target: the molecule itself
Test: negative-stain transmission electron microscopy

B1: T. maritima encapsulin with His6 insert with Strep-tag (TmEnc-STII) (natural protein, Thermotoga maritima)
chain: MEFLKRSFAPLTEKQWQEIDNRAREIFKTQLYGRKFVDVEGPGGGGGGHHHHHHGGGGGYGWEYAAHPLGEVEVLSDENEVVKWGLRKSLPLIELRATFTLDLWELDNLERGKPNVDLSSLEETVRKVAEFEDEVIFRGCEKSGVKGLLSFEERKIECGSTPKDLLEAIVRALSIFSKDGIEGPYTLVINTDRWINFLKEEAGHYPLEKRVEECLRGGKIITTPRIEDALVVSERGGDFKLILGQDLSIGYEDREKDAVRLFITETFTFQVVNPEALILLKF
B1: binds.

— publication PMC8435816 (Synthetic and Systems Biotechnology, 2021)
